Data from the supplement of paper PMC5998384.

Tested on: HeLa Kyoto
Assay: melting temperature (median over replicates), in situ; higher = more thermally stable
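Also: HeLa Kyoto cells synchronized by double thymidine or nocodazole block, proteins quantified by TMT10plex mass spectrometry, three independent biological replicates.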

Sequence of MGST2 (chain, as listed by the source): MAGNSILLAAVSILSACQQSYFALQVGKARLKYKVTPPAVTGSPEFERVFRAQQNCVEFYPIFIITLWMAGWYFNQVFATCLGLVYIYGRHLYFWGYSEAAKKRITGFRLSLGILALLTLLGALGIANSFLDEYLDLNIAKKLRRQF

MGDEKDSWKVKTLDEILQEKKRRKEQEEKAEIKRLKNSDDRDSKRDSLEEGELRDHRMEITIRNSPYRREDSMEDRGEEDDSLAIKPPQQMSRKEKAHHRKDEKRKEKRRHRSHSAEGGKHARVKEKEREHERRKRHREEQDKARREWERQKRREMAREHSRRERDRLEQLERKRERERKMREQQKEQREQKERERRAEERRKEREARREVSAHHRTMREDYSDKVKASHWSRSPPRPPRERFELGDGRKPGEARPAPAQKPAQLKEEKMEERDLLSDLQDISDSERKTSSAESSSAESGSGSEEEEEEEEEEEEEGSTSEESEEEEEEEEEEEEETGSNSEEASEQSAEEVSEEEMSEDEERENENHLLVVPESRFDRDSGESEEAEEEVGEGTPQSSALTEGDYVPDSPALSPIELKQELPKYLPALQGCRSVEEFQCLNRIEEGTYGVVYRAKDKKTDEIVALKRLKMEKEKEGFPITSLREINTILKAQHPNIVTVREIVVGSNMDKIYIVMNYVEHDLKSLMETMKQPFLPGEVKTLMIQLLRGVKHLHDNWILHRDLKTSNLLLSHAGILKVGDFGLAREYGSPLKAYTPVVVTLWYRAPELLLGAKEYSTAVDMWSVGCIFGELLTQKPLFPGKSEIDQINKVFKDLGTPSEKIWPGYSELPAVKKMTFSEHPYNNLRKRFGALLSDQGFDLMNKFLTYFPGRRISAEDGLKHEYFRETPLPIDPSMFPTWPAKSEQQRVKRGTSPRPPEGGLGYSQLGDDDLKETGFHLTTTNQGASAAGPGFSLKF [CDK11B]
melting temperature (cell cycle stage: G1/S): 46.5 °C | melting temperature (cell cycle stage: mitosis): 50.3 °C

MAAHRKHVFVEKVLQRLFPPVPSGQGKREPQTLAVQNPPKKVTSEKVSQKHAEPLTDTGSETPTARRLYTASGPPEGYVPCWPEPSSCGSPENASSGDDTEDQDPHDQPKRRRIRKHKSKKKFKNPNNVLIEQAELEKQQSLLQEKSQRQHTDGTTISKNKKRKLKKKQQIKRKKAAGLAAKAAGVSFMYQPEDSSNEGEGVGEACEEDGVDTSEEDPTLAGEEDVKDTREEDGADASEEDLTRARQEEGADASEEDPTPAGEEDVKDAREEDGVDTIEEDLTRAGEEDGKDTREEDGADASEEDPTWAGEEEGADSGEEDGADASEEDDTITNEKAHSILNFLKSTQEMYFYDGVSRDAASAALADAAEELLDRLASHSMLPSDVSILYHMKTLLLLQDTERLKHALEMFPEHCTMPPDHARVISAFFSYWITHILPEKSSD [ERICH1]
melting temperature (cell cycle stage: mitosis): 52.6 °C

MRSGEELDGFEGEASSTSMISGASSPYQPTTEPVSQRRGLAGLRCDPDYLRGALGRLKVAQVILALIAFICIETIMACSPCEGLYFFEFVSCSAFVVTGVLLIMFSLNLHMRIPQINWNLTDLVNTGLSAFLFFIASIVLAALNHRAGAEIAAVIFGFLATAAYAVNTFLAVQKWRVSVRQQSTNDYIRARTESRDVDSRPEIQRLDTFSYSTNVTVRKKSPTNLLSLNHWQLA [CMTM4]
melting temperature (cell cycle stage: G1/S): 58.1 °C

MATQAKRPRVAGPVDGGDLDPVACFLSWCRRVGLELSPKVSERAGGRRTRGGARAALTSPPAQVAVSRQGTVAGYGMVARESVQAGELLFVVPRAALLSQHTCSIGGLLERERVALQSQSGWVPLLLALLHELQAPASRWRPYFALWPELGRLEHPMFWPEEERRCLLQGTGVPEAVEKDLANIRSEYQSIVLPFMEAHPDLFSLRVRSLELYHQLVALVMAYSFQEPLEEEEDEKEPNSPVMVPAADILNHLANHNANLEYSANCLRMVATQPIPKGHEIFNTYGQMANWQLIHMYGFVEPYPDNTDDTADIQMVTVREAALQGTKTEAERHLVYERWDFLCKLEMVGEEGAFVIGREEVLTEEELTTTLKVLCMPAEEFRELKDQDGGGDDKREEGSLTITNIPKLKASWRQLLQNSVLLTLQTYATDLKTDQGLLSNKEVYAKLSWREQQALQVRYGQKMILHQLLELTS [SETD6]
melting temperature (cell cycle stage: mitosis): 50.4 °C

MGLELFLDLVSQPSRAVYIFAKKNGIPLELRTVDLVKGQHKSKEFLQINSLGKLPTLKDGDFILTESSAILIYLSCKYQTPDHWYPSDLQARARVHEYLGWHADCIRGTFGIPLWVQVLGPLIGVQVPKEKVERNRTAMDQALQWLEDKFLGDRPFLAGQQVTLADLMALEELMQPVALGYELFEGRPRLAAWRGRVEAFLGAELCQEAHSIILSILEQAAKKTLPTPSPEAYQAMLLRIARIP [GSTT2]
melting temperature (cell cycle stage: G1/S): 54.9 °C | melting temperature (cell cycle stage: mitosis): 55.1 °C

MGST2
melting temperature (cell cycle stage: G1/S): 54.3 °C

MEADGDGEELARLRSVFAACDANRSGRLEREEFRALCTELRVRPADAEAVFQRLDADRDGAITFQEFARGFLGSLRGGRRRDWGPLDPAPAVSEAGPETHDSEEDEGDEDAAAALATSCGPASPGRAWQDFQARLGDEAKFIPREEQVSTLYQNINLVEPRLIQPYEHVIKNFIREIRLQSTEMENLAIAVKRAQDKAAMQLSELEEEMDQRIQAAEHKTRKDEKRKAEEALSDLRRQYETEVGDLQVTIKKLRKLEEQSKRVSQKEDVAALKKQIYDLSMENQKVKKDLLEAQTNIAFLQSELDALKSDYADQSLNTERDLEIIRAYTEDRNSLERQIEILQTANRKLHDSNDGLRSALENSYSKFNRSLHINNISPGNTISRSSPKFIGHSPQPLGYDRSSRSSYVDEDCDSLALCDPLQRTNCEVDSLPESCFDSGLSTLRDPNEYDSEVEYKHQRGFQRSHGVQESFGGDASDTDVPDIRDEETFGLEDVASVLDWKPQGSVSEGSIVSSSRKPISALSPQTDLVDDNAKSFSSQKAYKIVLAGDAAVGKSSFLMRLCKNEFRENISATLGVDFQMKTLIVDGERTVLQLWDTAGQERFRSIAKSYFRKADGVLLLYDVTCEKSFLNIREWVDMIEDAAHETVPIMLVGNKADIRDTAATEGQKCVPGHFGEKLAMTYGALFCETSAKDGSNIVEAVLHLAREVKKRTDKDDSRSITNLTGTNSKKSPQMKNCCNG [RASEF]
melting temperature (cell cycle stage: G1/S): 49.8 °C | melting temperature (cell cycle stage: mitosis): 50 °C

MELIQDTSRPPLEYVKGVPLIKYFAEALGPLQSFQARPDDLLINTYPKSGTTWVSQILDMIYQGGDLEKCNRAPIYVRVPFLEVNDPGEPSGLETLKDTPPPRLIKSHLPLALLPQTLLDQKVKVVYVARNPKDVAVSYYHFHRMEKAHPEPGTWDSFLEKFMAGEVSYGSWYQHVQEWWELSRTHPVLYLFYEDMKENPKREIQKILEFVGRSLPEETMDFMVQHTSFKEMKKNPMTNYTTVPQELMDHSISPFMRKGMAGDWKTTFTVAQNERFDADYAEKMAGCSLSFRSEL [SULT1A4]
melting temperature (cell cycle stage: G1/S): 48.5 °C | melting temperature (cell cycle stage: mitosis): 49.2 °C

MAPRALPGSAVLAAAVFVGGAVSSPLVAPDNGSSRTLHSRTETTPSPSNDTGNGHPEYIAYALVPVFFIMGLFGVLICHLLKKKGYRCTTEAEQDIEEEKVEKIELNDSVNENSDTVGQIVHYIMKNEANADVLKAMVADNSLYDPESPVTPSTPGSPPVSPGPLSPGGTPGKHVCGHHLHTVGGVVERDVCHRCRHKRWHFIKPTNKSRESRPRRQGEVTVLSVGRFRVTKVEHKSNQKERRSLMSVSGAETVNGEVPATPVKRERSGTE [RELL1]
melting temperature (cell cycle stage: G1/S): 54.7 °C

MWTLGRRAVAGLLASPSPAQAQTLTRVPRPAELAPLCGRRGLRTDIDATCTPRRASSNQRGLNQIWNVKKQSVYLMNLRKSGTLGHPGSLDETTYERLAEETLDSLAEFFEDLADKPYTFEDYDVSFGSGVLTVKLGGDLGTYVINKQTPNKQIWLSSPSSGPKRYDWTGKNWVYSHDGVSLHELLAAELTKALKTKLDLSSLAYSGKDA [FXN]
melting temperature (cell cycle stage: G1/S): 53 °C | melting temperature (cell cycle stage: mitosis): 53.3 °C

MAAAAAGAGSGPWAAQEKQFPPALLSFFIYNPRFGPREGQEENKILFYHPNEVEKNEKIRNVGLCEAIVQFTRTFSPSKPAKSLHTQKNRQFFNEPEENFWMVMVVRNPIIEKQSKDGKPVIEYQEEELLDKVYSSVLRQCYSMYKLFNGTFLKAMEDGGVKLLKERLEKFFHRYLQTLHLQSCDLLDIFGGISFFPLDKMTYLKIQSFINRMEESLNIVKYTAFLYNDQLIWSGLEQDDMRILYKYLTTSLFPRHIEPELAGRDSPIRAEMPGNLQHYGRFLTGPLNLNDPDAKCRFPKIFVNTDDTYEELHLIVYKAMSAAVCFMIDASVHPTLDFCRRLDSIVGPQLTVLASDICEQFNINKRMSGSEKEPQFKFIYFNHMNLAEKSTVHMRKTPSVSLTSVHPDLMKILGDINSDFTRVDEDEEIIVKAMSDYWVVGKKSDRRELYVILNQKNANLIEVNEEVKKLCATQFNNIFFLD [CCZ1B]
melting temperature (cell cycle stage: G1/S): 50.9 °C | melting temperature (cell cycle stage: mitosis): 51.8 °C

MFAKGKGSAVPSDGQAREKLALYVYEYLLHVGAQKSAQTFLSEIRWEKNITLGEPPGFLHSWWCVFWDLYCAAPERRDTCEHSSEAKAFHDYSAAAAPSPVLGNIPPNDGMPGGPIPPGFFQGPPGSQPSPHAQPPPHNPSSMMGPHSQPFMSPRYAGGPRPPIRMGNQPPGGVPGTQPLLPNSMDPTRQQGHPNMGGSMQRMNPPRGMGPMGPGPQNYGSGMRPPPNSLGPAMPGINMGPGAGRPWPNPNSANSIPYSSSSPGTYVGPPGGGGPPGTPIMPSPADSTNSSDNIYTMINPVPPGGSRSNFPMGPGSDGPMGGMGGMEPHHMNGSLGSGDIDGLPKNSPNNISGISNPPGTPRDDGELGGNFLHSFQNDNYSPSMTMSV [SSBP3]
melting temperature (cell cycle stage: G1/S): 52.4 °C

MSLPPEKASELKQLIHQQLSKMDVHGRIREILAETIREELAPDQQHLSTEDLIKALRRRGIIDDVMKELNFVTDSVEQELPSSPKQPICFDRQSTLKKTNIDPTRRYLYLQVLGGKAFLEHLQEPEPLPGQVCSTFTLCLHYRNQRFRSKPVPCACEPDFHDGFLLEVHRESLGDGTRMADSTTMLSISDPIHMVLIKTDIFGETTLVASYFLEWRSVLGSENGVTSLTVELMGVGTESKVSVGILNIKLEMYPPLNQTLSQEVVNTQLALERQKTAEKERLFLVYAKQWWREYLQIRPSHNSRLVKIFAQDENGINRPVCSYVKPLRAGRLLDTPRQAARFVNVLGYERAPVIGGGGKQEQWCTLLAFLCRNKGDCEDHANLLCSLLLGYGLEAFVCVGTKAKGVPHAWVMTCGTDGAITFWESLTGHRYIHKPTNPDEPPVAEQPKPLYPYRTIGCVFNHQMFLGNCQPSDAVETCVFDLNDESKWKPMSEEAIKSVCAPGATTSLPPFPPLCASTIDASVTSNEIEMQLRLLVSEHRKDLGLTTVWEDQLSYLLSPALASYEFERTTSISAGNEEFQDAIRRAVPDGHTFKGFPIHFVYRNARRAFATCLRSPFCEEIICCRGDQVRLAVRVRVFTYPESACAVWIMFACKYRSVL [CEP76]
melting temperature (cell cycle stage: G1/S): 53.7 °C

MAEAEESPGDPGTASPRPLFAGLSDISISQDIPVEGEITIPMRSRIREFDSSTLNESVRNTIMRDLKAVGKKFMHVLYPRKSNTLLRDWDLWGPLILCVTLALMLQRDSADSEKDGGPQFAEVFVIVWFGAVTITLNSKLLGGNISFFQSLCVLGYCILPLTVAMLICRLVLLADPGPVNFMVRLFVVIVMFAWSIVASTAFLADSQPPNRRALAVYPVFLFYFVISWMILTFTPQ [YIPF6]
melting temperature (cell cycle stage: G1/S): 55 °C | melting temperature (cell cycle stage: mitosis): 54.6 °C

MLLSIGMLMLSATQVYTILTVQLFAFLNLLPVEADILAYNFENASQTFDDLPARFGYRLPAEGLKGFLINSKPENACEPIVPPPVKDNSSGTFIVLIRRLDCNFDIKVLNAQRAGYKAAIVHNVDSDDLISMGSNDIEVLKKIDIPSVFIGESSANSLKDEFTYEKGGHLILVPEFSLPLEYYLIPFLIIVGICLILIVIFMITKFVQDRHRARRNRLRKDQLKKLPVHKFKKGDEYDVCAICLDEYEDGDKLRILPCSHAYHCKCVDPWLTKTKKTCPVCKQKVVPSQGDSDSDTDSSQEENEVTEHTPLLRPLASVSAQSFGALSESRSHQNMTESSDYEEDDNEDTDSSDAENEINEHDVVVQLQPNGERDYNIANTV [RNF13]
melting temperature (cell cycle stage: G1/S): 57.4 °C | melting temperature (cell cycle stage: mitosis): 64.3 °C

RAPGEF6
melting temperature (cell cycle stage: G1/S): 47.3 °C | melting temperature (cell cycle stage: mitosis): 48.9 °C
